Data set [1] in a line: patch clamp, IClswell in wild-type ICln-transfected cells. To be noted: control: vehicle (0.1% DMSO plus 5 mM D-glucose).
For data set [2], the target named is T1, integrin αIIbshort-EYFP (amino acids 987-1039 of the human integrin αIIb chain fused to EYFP) (human, UniProt P08514-1 987-1039).
T1 construct: human integrin αIIb chain, amino acids 987-1039 of NP_000410.2 (integrin αIIbshort); also called αIIbs-EYFP; αIIb integrin; source: NIH/3T3, transfected for 48 h, in fixed cells; not shown: EYFP, C-terminal, kept
As to the kind of experiment: FRET or BRET; acceptor photobleaching FRET in fixed NIH/3T3 cells transfected for 48 h; donor ECFP-ICln, acceptor αIIbshort-EYFP; FRET efficiency in three-four plasma membrane ROIs of each cell; O-GlcNAcylation left unmodified, increased with 100 μM PUGNAc plus 5 mM glucosamine for 1 h, or reduced by co-transfection of OGA-L. To be noted: partners not purified.

T1 sequence (P08514 987-1039): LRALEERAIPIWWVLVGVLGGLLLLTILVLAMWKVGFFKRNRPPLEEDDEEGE

B1: ICln: 100 μM PUGNAc plus 5 mM glucosamine (protein)
parent chain: MSFLKSFPPPGPAEGLLRQQPDTEAVLNGKGLGTGTLYIAESRLSWLDGSGLGFSLEYPTISLHALSRDRSDCLGEHLYVMVNAKFEEESKEPVADEEEEDSDDDVEPITEFRFVPSDKSALEAMFTAMCECQALHPDPEDEDSDDYDGEEYDVEAHEQGQGDIPTFYTYEEGLSHLTAEGQATLERLEGMLSQSVSSQYNMAGVRTEDSIRDYEDGMEVDTTPTVAGQFEDADVDH
For the molecule B1, in data set [1], the “other: channel current, other: % variation of current at +100 mV” value is on record as “decreases”.

B2: ECFP-ICln Ser67Ala (natural protein, UniProt P54105 1-237, looked up)
chain: MSFLKSFPPPGPAEGLLRQQPDTEAVLNGKGLGTGTLYIAESRLSWLDGSGLGFSLEYPTISLHALARDRSDCLGEHLYVMVNAKFEEESKEPVADEEEEDSDDDVEPITEFRFVPSDKSALEAMFTAMCECQALHPDPEDEDSDDYDGEEYDVEAHEQGQGDIPTFYTYEEGLSHLTAEGQATLERLEGMLSQSVSSQYNMAGVRTEDSIRDYEDGMEVDTTPTVAGQFEDADVDH
notes: ICln with Ser67Ala, made by site-directed mutagenesis of the vector with the wild-type ICln cDNA; also called Ser67Ala ICln; source: NIH/3T3, transfected for 48 h, in fixed cells; not shown: ECFP, N-terminal, kept
Regarding B2, the “FRET efficiency relative to wild-type ICln” value in data set [2] is about 3 fold.
